Source: patent US20250312499A1 (RADIONETICS ONCOLOGY, published 2025)
Numbered stars: 1 amine (or outer) side, 2 acyl side, 3 side chain; on linkers, the order of the positions; unused ones are H or OH. Square brackets hold non-standard residues; d marks the D form. * marks the point of attachment. X2 = 4‑amino‑1‑((3-fluoro-4-methylbenzyl)glycyl)piperidine‑4‑carboxylic acid, Cc1ccc(CN(CC(=O)N2CCC(N[*:1])(C(=O)[*:2])CC2)[*:3])cc1F; X10 = 3‑(2-(2-(3-(4-iodophenyl)propanamido)ethoxy)ethoxy)propanoyl, O=C(CCc1ccc(I)cc1)NCCOCCOCCC(=O)*; DOTA = O=C(O)CN1CCN(CC(=O)O)CCN(CC(=O)*)CCN(CC(=O)O)CC1; Api(1-amidino) = N=C(N)N1CCC(N)(C(=O)O)CC1; 4Pal = N[C@@H](Cc1ccncc1)C(=O)O; d4Pal = N[C@H](Cc1ccncc1)C(=O)O; Ahx = NCCCCCC(=O)O; azaGly = NNC(=O)O

Biological target: T1, human kisspeptin receptor (KISS1R) (human, UniProt Q969F8 1-398)
T1 construct: whole, on cells; Assayed as crude membrane fractions of tetracycline-induced Flp-In T-Rex 293 cells expressing the receptor; also called GPR54; hKiSSR
Assay: radioligand competition, hKISS1R membranes; legend: A is <10 nM
Method: The cells are grown to 85-100% confluence on standard tissue culture dishes in Dulbecco's Modified Eagles Medium (DMEM) (Corning) supplemented with 10% FBS (Gemini), 1% penicillin-streptomycin-glutamine (Gibco), 500 μg/mL hygromycin, and 15 μg/mL blastacidin. 48 hrs prior to preparing membranes 10 μg/ml of tetracycline is added to the culture media to induce receptor expression. To prepare membranes, cells are scraped and collected in 1× Dulbecco's phosphate buffered saline (Corning) and then pelleted at 1000 RPMs. The cell pellet is reconstituted in membrane preparation buffer (20 mM HEPES, 6 mM MgCl₂ and 1 mM EGTA, protease inhibitor tablets (Pierce), pH 7.4) and placed in a cell disruption vessel (Parr Instrument company) at 1000 PSI for 30 min on ice. The pressurized contents are then released and spun down at 1000 RPMs and the supernatant is collected and further centrifuged at 15,000 RPMs to pellet the membranes. The membrane pellet is resuspended in membrane preparation buffer, snap frozen and stored at −80° C. for later use.
Assay contents are then filtered through unifilter CF/C: microplates (PerkinElmer) pre-soaked with 0.5% BSA and washed with 9×400 μL of cold wash buffer (10 mM HEPES, 500 mM NaCl, 0.1% Tween-20, pH7.4). Assay plates are read using a Microbeta² (PerkinElmer) and Ki values for compounds are determined using a GraphPad Prism 9.3 non-linear regression analysis.

T1 sequence (Q969F8 whole entry): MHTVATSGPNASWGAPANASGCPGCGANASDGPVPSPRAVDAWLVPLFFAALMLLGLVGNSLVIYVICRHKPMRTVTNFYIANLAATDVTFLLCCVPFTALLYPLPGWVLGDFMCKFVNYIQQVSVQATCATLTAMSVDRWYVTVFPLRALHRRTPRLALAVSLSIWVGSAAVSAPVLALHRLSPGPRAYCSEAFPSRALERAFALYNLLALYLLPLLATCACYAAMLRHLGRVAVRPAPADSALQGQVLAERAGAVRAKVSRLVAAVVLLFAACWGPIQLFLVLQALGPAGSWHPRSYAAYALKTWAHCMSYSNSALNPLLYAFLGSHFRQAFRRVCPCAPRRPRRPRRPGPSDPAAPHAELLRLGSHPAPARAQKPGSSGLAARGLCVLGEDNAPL

Ki, < 10 nM:
{DOTA-Ahx}-[dY][dW]NTF[azaGly]L[Api(1-amidino)]W-NH2 (also: nonradioactive indium(III) chelated by DOTA, also called 6-In) [In Complex of Compound 6]
{DOTA}-G[dY][d4Pal]NTF[azaGly]L[X2]Y-NH2 (also: nonradioactive indium(III) chelated by DOTA, also called 193-In) [Indium complex of Compound 193]
X10-[dY]K(DOTA)NTF[azaGly]L[Api(1-amidino)]W-NH2 (also: indium(III) chelated by DOTA on Lys, also called 196-In) [In Complex of Compound 196]
{DOTA-Ahx}-[dY][dW]NTF[azaGly]L[X2]W-NH2 (also: nonradioactive indium(III) chelated by DOTA, also called 1-In) [In Complex of Compound 1]
{DOTA-Ahx}-[dY][dW]NTF[azaGly]L[X2]W-NH2 (also: lutetium(III) chelated by DOTA, also called 1-Lu) [Lu Complex of Compound 1]
{DOTA-Ahx}-[dY][dW]NTF[azaGly]L[X2]W-NH2 (also: nonradioactive gallium(III) chelated by DOTA, also called 1-Ga) [Ga Complex of Compound 1]
{DOTA-Ahx}-[dY][dW]NTF[azaGly]L[X2][4Pal]-NH2 (also: nonradioactive indium(III) chelated by DOTA, also called 105-In) [In Complex of Compound 105]
{DOTA-Ahx}-F[azaGly]L[X2]W-NH2 (also: nonradioactive indium(III) chelated by DOTA, also called 2-In) [In Complex of Compound 2]
